Experimental findings from paper PMC12782892, “Natural variations in MdBPM2/MdRGLG3‐MdNAC83 network controlling the quantitative segregation of apple fruit storability” are described below.

The target in this series is MdNAC83 (Malus domestica, UniProt D9ZJA0 1-255). The series can be described thus: EMSA; LightShift Chemiluminescent EMSA kit (Thermo), per Fan et al. 2018; buffer, salt, pH and temperature not stated. To be noted: protein: recombinant, tags: His (pET-32a), chain copies: 2, blunt.
Chain of MdNAC83 (D9ZJA0 entry or part of it): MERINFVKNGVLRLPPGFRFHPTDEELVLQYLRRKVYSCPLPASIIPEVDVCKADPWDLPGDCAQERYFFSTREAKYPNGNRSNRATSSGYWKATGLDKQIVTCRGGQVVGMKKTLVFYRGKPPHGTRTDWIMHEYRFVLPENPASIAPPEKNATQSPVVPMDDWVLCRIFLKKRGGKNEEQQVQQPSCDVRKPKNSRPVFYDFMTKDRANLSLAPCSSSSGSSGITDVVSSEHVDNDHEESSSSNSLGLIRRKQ

B1: MdMANA3 promoter probe (MdMAN3-F/R) (dsDNA)
DNA 1: GGTTAATTTTCTCAATTTCGTATTGATTTACTCTTGTACT
DNA 2: AGTACAAGAGTAAATCAATACGAAATTGAGAAAATTAACC
Turning to B1, the binding result ((LightShift kit; MdMAN3-HotF)) is reported as “binds”.

B2: MdXTH28 promoter probe (MdXH28-F/R) (dsDNA)
DNA 1: CCGTCCAAACCAGTAAACACGTAATTATAATCTCATTTAT
DNA 2: ATAAATGAGATTATAATTACGTGTTTACTGGTTTGGACGG
B2: the binding result ((LightShift kit)) is given as “binds”.

B3: MdACO1 promoter probe (MdACO1-F/R) (dsDNA)
DNA 1: TTGGTAGGGGTCCATCAGGACGTGCTTACTGTTCCCTACT
DNA 2: AGTAGGGAACAGTAAGCACGTCCTGATGGACCCCTACCAA
For the molecule B3, under “(LightShift kit; MdACO1-HotF)”, the binding result is reported as “binds”.
